Laboratory results taken from patent CN113698481A (SUZHOU CENTERGENE PHARMACEUTICALS CO LTD, dated 2021).
Where a chain is given by its changes, count along the chain named.

B1: SEQ ID NO 3 (VHH)
VHH: QVQVAESGGGLVQSGGSMNLSCTASGNLFSVDAMGWFRQAPGEEREAVAAIMWSGDSTYYANAVKGRFTISRDNAKNTVYLQMNSLKPEDTAVYYCAARLQEEGWWDYWGQGTQVTVSS
notes: Expressed in E. coli, nickel column purified; Only the CDRs are printed; also called 蛋白3
B2: SEQ ID NO 6 (VHH)
VHH: B1 VHH with A5V, S14P, M18L, N19R, T23A, N27R, L28T, F29V, V31S, D32H
notes: Expressed in E. coli, nickel column purified; Only the CDRs are printed; also called 蛋白6
B3: SEQ ID NO 7 (VHH)
VHH: QVQLVESGGGLVQAGGSLRLSCVASGRTFSSYDMGWFRQAPGEEREAVAAINWSGGSTYYADSVKGRFTISSDNAKNTVYLQMNNLKPEDTAVYYCAARQVPGWWDYWGQGTQVTVSS
notes: Expressed in E. coli, nickel column purified; Only the CDRs are printed; also called 蛋白7
B4: SEQ ID NO 5 (VHH)
VHH: QVQLVESGGGLAQAGGSLRLSCAASGRTASGYAMGWFRQAPGKEREAVAAIMWSGGSTYYADSVKGRFTISRDNAKNTVYLQMNSLKTEDTAVYYCAARTDGSGWWDYWGQGTQVTVSS
notes: Expressed in E. coli, nickel column purified; Only the CDRs are printed; also called 蛋白5
B5: SEQ ID NO 4 (VHH)
VHH: QVRLVESGGGLVQPGGSLRLSCTASGGTFDRYNVAWFRQAPGEEREAVASIMWSGDNTYYANSVKGRFTISRDNAKNTVYLQMNSLKPEDTAVYYCAARIQEQGWWDYWGQGTQVTVSS
notes: Expressed in E. coli, nickel column purified; Only the CDRs are printed; also called 蛋白4

Biological target: T1, 人绒毛膜促性腺激素(HCG) (human, UniProt P0DN86 21-165)
T1 construct: Alpha/beta heterodimer coated on ELISA plates; The source of the HCG preparation is lost from the text (gap after 'HCG |'); also called HCG抗原
T1 sequence (chain, as listed by the source, chain 1 of 2, other chains not shown): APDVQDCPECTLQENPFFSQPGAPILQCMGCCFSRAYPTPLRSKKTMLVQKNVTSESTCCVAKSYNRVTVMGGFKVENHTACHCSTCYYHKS
Test: ELISA, HCG coated at 2 μg/ml, VHH detected with anti-6xHis-HRP, 4-parameter fit

Question: For B1, which EC50 is on record?
Answer: 0.0259 µg/mL

Question: How did the EC50 turn out when B2 was run?
Answer: 0.0138 µg/mL

Question: How did the EC50 turn out when B3 was run?
Answer: 0.014 µg/mL

Question: How did the EC50 turn out when B4 was run?
Answer: 0.00946 µg/mL

Question: For B5, which EC50 is on record?
Answer: 0.00505 µg/mL
